PMC11266601

Biological target: RDTND-RIDC/A (DUF1-RIDC/A, residues 1959–2901, C2838 to alanine), from the 6×His construct (V. vulnificus MO6-24/O)
Assay: ITC

Q: For “Human calmodulin2 (CaM), 6×His/GST tag cleaved (from UniProt P0DP24 1-149) (natural protein)”, which stoichiometry N is on record?
A: Its stoichiometry N is 1.
